In a protein production outcome set (Wang et al. 2014):

Experiment: label from the status in PepcDB records
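Further: failed if final PepcDB status was selected cloned or expressed and not failed if soluble or beyond.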

Sequence	protein production
MNIMEIEKTNRMNALFEFYAALLTDKQMNYIELYYADDYSLAEIADEFGVSRQAVYDNIKRTEKILETYEMKLHMYSDYVVRSEIFDDMIAHYPHDEYLQEKISILTSIDNRE	not failed
MEIVFLGGAKEVGASCVLIKAGGKNILLDSGIRMKEDKLPNLQLLRELGGADVCLISHAHLDHIGSLPLIAREYPHIFFYTNQPTKDLIKVLLYDSLKIMDAKEDEIPIYAEKNVEDLLDRTITYGFNYTFEPLEGIKVTFFPAGHILGASMIFIQTQEGSVLYTGDFSTDKQLTVDKASIPKIRPDVVICESTYGDRLHTNRNYEEERLFNSIYEFISKGGKVLIPAFAIGRAQEIILILRNYMKKKKVEFNVFIDGMVREVIRVYKNNPTFLSSRYYKKVLKGEEIFLSDNIDIITDKKQREEIMSSSDPCVIISSSGMLTGGPSVFYAEKLVENQNALIAITGYQDEESPGRKLLELTELPESERKIELNGKEYEVKCKVEKYGLSAHADRDSILGFLAMLKPKTVVFAHGSEEAISQLSDMAIKEIESAVLIPQNGEMNTISIEKPRRQLSFFNVKKLSNIEPLNEENIKSLWEYLLESKQEANHITAEHAILIWNGKQFLERDEVNRVFELLKSSPYFEQNPRKPYLFRILSRTEVENKLKPKPMEQNKMRELAFEMFKDFGLYKVGMDNENVVVTFYFNFPHIANRLEDKIKEFEEKTLWKVEVNPNINLTYAQKYLQKLLEDEGVKLLKFSYNPVINAIVVKPNKEFDSMKELCSKFLDETGIELIFDIENKEDCTARLQNKDRMEQNKALLLIDLYFENEKDKVYKKSIKEGGKYIELSFVTPFVAEKYKDKLNELSQKTGWEIRISQTINQVEMVNILKDILAKYNIDLIKNPSIYPSIREVRIKLAGEIDSNIVNEIANEFYDRTGFYLKI	failed
MLNPRIKWSSRKFGNLFDVILHLFFSDTFLFKEIPVDVDQLLVTWDGKLVSCLPTGTRGNYLCKVSSPPGVHRVSVEVIYGGRRIVKTENVPLIDFDISLSLDKNSLLVKLLGYSDPDTISVKLNGTPLTPSRIGPGEYRVDITERGVAEVEVCISGICKRSIINVEPHLSLSDWDPSVWVGRNLYGYQVMEFLGEGGFSYVMKASSPGGVVALKIPKLTQSPASGLTRNVINVLDDLFKEQSALLELSDSPYLVKLVGVHLDRDSVRRALTEPRYYLEYPPMIVMEFMAGGSVSRLVKDDVQFYSDNWKTAVFMIISRISSGLLKIHEKGYVHCDVKPSNILLDREPPPTAGELYERMKRREVNPKLADLGSAVKIGGVPPGVTLEYSSLEQVTSTRYGGVNPRDDVYSLGATIYYLLTKRYLNSPMIPFMEKALGGGGLDNSVYALRDYSTLEAVGLDSKIVRFIKDMTSENRDKRPSSLEVFNFFTSLVN	failed
MYSNSKCNKFLMYFIFIIFLFCSCQTFYPKNSPEFSFIENSGKNFVWEKLTEGIFLSHIKYEDYPLIIHAVKIDLTNPKLKIVVTEPALFNSKGMVKRETTLSFARRHNTVIALNAAFFNVISFSFSLRGEPLGIHIDKKINLSKPFPKYGALCFLDDNSAFIIESQNTEDIKADIEYAVSGNRIILKNGKPIITNISKKENSRTCVGLADGGKTLYLFFAEGENKKKSRGITYDQAHFFMKKLGAQDAIHLDGGGSSSLIIKKENSFFVQVPSISHFGLRKVVTNLGFIIED	failed
MKIAILCASGKVGKEISKEALKRNLEPVCFVRNSSKMNEFLPQAKIVQRDLFELDSKDLIDFDIIIDAFGEWENLSLHKKHIECLSVILQGSKAKLFVVGGAGSLYMDENHTTRLMDMPDFPKEYLDIAKASAEVLEFLRNEKGFKWVYVSPSAIFSPDLPKSNHYKIIGEKFEVNANNESKISYSDYASAMIDIVLNSCYENTRIGVISL	failed
MKRSDKYTDDYIEQRYESQRPHYNTYYQPIGKPPKKKKSKRIFLKAIITILILLIIFFGVMYFISSRANVDDLKSIENKSDFVATENMPNYVKGAFISMEDERFYKHHGFDIKGTTRALFSTISDRDVQGGSTITQQVVKNYYYDNERSFTRKIKELFVARKVEKQYSKNQILSFYMNNIYYGDNQYTVEGAANHYFGVTVDKNNSNMSQISVLQSAILASKVNAPSVYDVNDMSNNYINRVKTNLEKMKQQNFISESQYQEAMSQLGN	not failed
MKSWQIELLYDGECPLCLREVNFLRSKDQGRGLVNFVDIAQPDYNPLDHGGVSFEDAMARIHGVKADGSVVKNVAVFREVYEILGIGWLYAPTRWPIIGPLVDRIYDFWADLRLSWTGRSSLAEILAQREKGMCATDGCALPVTSGVEGKP	failed
RLRHCNHHDPHGFYGWHETEAGSVIRTRQVGATQVNLLIDDTSHVMTPIGDDIFAIDLGHRERADYRLEVTWPDQEPQVKADPYYFLPTVG	failed
MASLISFWLFFALSLLQPQQRQFLASKPWQDWLLDGVSLGIQGAIIPLLQLLLVINFYSLIIPHWQHSFNLFAGGQFLLGFVAIDYVYYWSHRALHSKLLFPIHQVHHTVSQMDMVSCARNTFWSSLFLPYVWLNSLIIYLLHDARGYILAISCTYLLDLWRHSSLIINKKCWLHDCLNSWLILPQDHGLHHHQIGKGNFGANLKLWDKIHGTYLKNTLPNQLSISSGMGIKLELTLWQKLFWPLT	failed
MSLLHIAVLLPLIFALIIPFLYRFVKRIHLGWFVLPVPIVLFIYFISLISMTMSGNNVMKNLNWMPHIGMNFNLYVDGLGLLFSLLITGIGSLVVLYSIGYLSKSEQLGNFYCYLLLFMGAMLGVVLSDNFIILYLFWELTSFSSFLLISFWREKKASIYGAQKSLIITVLGGLSMLGGIILLSLATDTFSIQAMISKASDIQNSPFFILVMILFMIGAFTKSAQVPFYIWLPDAMEAPTPVSAYLHSATMVKAGLYLIARITPIFAISEGWVWTITLVGLITLFWASLNATKQHDLKGILAFSTVSQLGMIMSMLGIGAVSYHYQGANSQLYVAGFVAAIFHLINHATFKGALFMITGGIDHSTGTRDVKKLGGLLTIMPISFTLTVITTLSMAGVPPFNGFLSKEKFLESMINVTHLNLMSLNTLGILLPIIAIIGSIFTFVYSIKFILHIFFGSYKPEALPKQAHESSILMLISPIILTSLVIVFGLFPSILTQSIIEPASVAVSQTSNITAEFHLFHGITPAFLSTIGIYIIGILLLISFSYWVRLLQAHPYQLTLNHWYDTSGQRIPGYSENITNSYVTGFSRNNLVIILGILIALTFVTVISVPFSIDFKNVSHLRVFEGATVLFLLIASTFIIFAKSRLFSIIMLSAVGYAISVLFIFFKAPDLALTQFVVESISTALFLLCFYHLPNLNRYNEKPTFKLTNAVISIGVGLSVIILGLIGYGNRHFDSITKFYQEHVFDLAHGKNMVNVILVDFRGMDTLFESSVLGIAGLGVYTMIKLRLKQKNQSSEVNDHE	failed
VRLRNLVESDRERLLIWRNSPDVSAYMYSDHKIGHEEHDHWFDVARHDPRRRYWIIEADGEPVGLANLADIDLVHRRCAWAYYLASPKVRGLGVGSFVEFQIIEYVFNQLHLNKLWCEVLISNESVWRLHELYGFQREALFRQHVMKQGHEVDVIGLGLLASDWAARR	failed
MDHHHHHHHHMPRTTGMNVAVVGGGISGLAVAHHLRSRGTDAVLLESSARLGGAVGTHALAGYLVEQGPNSFLDREPATRALAAALNLEGRIRAADPAAKRRYVYTRGRLRSVPASPPAFLASDILPLGARLRVAGELFSRRAPEGVDESLAAFGRRHLGHRATQVLLDAVQTGIYAGDVEQLSVAATFPMLVKMEREHRSLILGAIRAQKAQRQAALPAGTAPKLSGALSTFDGGLQVLIDALAASLGDAAHVGARVEGLAREDGGWRLIIEEHGRRAELSVAQVVLAAPAHATAKLLRPLDDALAALVAGIAYAPIAVVHLGFDAGTLPAPDGFGFLVPAEEQRRMLGAIHASTTFPFRAEGGRVLYSCMVGGARQPGLVEQDEDALAALAREELKALAGVTARPSFTRVFRWPLGIPQYNLGHLERVAAIDAALQRLPGLHLIGNAYKGVGLNDCIRNAAQLADALVAGNTSHAP	not failed
MRDRVRWRVLSLPPLAQWREVMAALEVGPEAALAYWHRGFRRKEDLDPPLALLPLKGLREAAALLEEALRQGKRIRVHGDYDADGLTGTAILVRGLAALGADVHPFIPHRLEEGYGVLMERVPEHLEASDLFLTVDCGITNHAELRELLENGVEVIVTDHHTPGKTPPPGLVVHPALTPDLKEKPTGAGVAFLLLWALHERLGLPPPLEYADLAAVGTIADVAPLWGWNRALVKEGLARIPASSWVGLRLLAEAVGYTGKAVEVAFRIAPRINAASRLGEAEKALRLLLTDDAAEAQALVGELHRLNARRQTLEEAMLRKLLPQADPEAKAIVLLDPEGHPGVMGIVASRILEATLRPVFLVAQGKGTVRSLAPISAVEALRSAEDLLLRYGGHKEAAGFAMDEALFPAFKARVEAYAARFPDPVREVALLDLLPEPGLLPQVFRELALLEPYGEGNPEPLFLLFGAPEEARRLGEGRHLAFRLKGVRVLAWKQGDLALPPEVEVAGLLSENAWNGHLAYEVQAVDLRKPEALEGGIAPFAYPLPLLEALARARLGEGVYVPEDNPEGLDYARKAGFRLLPPEEAGLWLGLPPRPVLGRRVEVALGREARARLSAPPVLHTPEARLKALVHRRLLFAYERRHPGLFSEALLAYWEVNRVQEPAGSP	not failed
SHIIVIGAGITGVTSAYELIKLGFQVTVIDRHLFPAMETSFANGGQLSACNAEVWNQRSTISKGIKWMSKKDAPLLLNPSFNLHKYSWLFEFLSHIKHYEQNTIETVRLALLARKRLFEIAEIENIDFNLERRGILHIYHTPSDYEIAKNVNDLLNKATLHRYQVNPDEIKTIEPALSGEYCGGYYTPDDATGDIHKFCVGLADSSKRDGVDYKFGWDVNQIELLEKGVIVSCIPSTENMTEPSSQHLRLEADGIVVCGGVGSYQLAHMLGDRVNVYPVKGYSITVHLNDEHSIENAPWVSLLDESAKIVTSRLGKDRLRVAGTAEFNGYNRDIRADRIQPLINWVNANFEISTEHVVPWSGLRPMMPNMMPVVRQGKHPRVFYNTGHGHLGWTLSAATAAIIGQEIQSKIP	failed
MKPENFTSEKIPASLDEVSLNYFAHDGNKREYLTYIPSGYSHTIEAPVILNFHGFGGTASGQLALSDWRDLAEKHGIILIYPQGLELQKGGSHWNPDPVSSDSKSISDDLGFVRRLLKRISKNYSIDKSRVYATGYSNGAGMAYGLAHHMPDLIAGIAPVSGLMNDEYLSTTSGGSPVGLISFNGEEDWVRPVNGINGYLASVADISSHWARENSSTQSIAEQFAQANGDRIERTSYSRDDGLTTVEQYLVDRGGHEWFDLDIEGKDLNQLAWQFLSRLRKQD	failed
MENQKMQEPLVYRRILLTVDEDDNTSSERAFRYATTLAHDYDVPLGICSVLESEDINIFDSLTPSKIQAKRKHVEDVVAEYVQLAEQRGVNQVEPLVYEGGDVDDVILEQVIPEFKPDLLVTGADTEFPHSKIAGAIGPRLARKAPISVIVVR	not failed
MGHHHHHHSHMVLSQNTKRESGRKVQSGNINAAKTIADIIRTCLGPKSMMKMLLDPMGGIVMTNDGNAILREIQVQHPAAKSMIEISRTQDEEVGDGTTSVIILAGEMLSVAEHFLEQQMHPTVVISAYRKALDDMISTLKKISIPVDISDSDMMLNIINSSITTKAISRWSSLACNIALDAVKMVQFEENGRKEIDIKKYARVEKIPGGIIEDSCVLRGVMINKDVTHPRMRRYIKNPRIVLLDSSLEYKKGESQTDIEITREEDFTRILQMEEEYIQQLCEDIIQLKPDVVITEKGISDLAQHYLMRANITAIRRVRKTDNNRIARACGARIVSRPEELREDDVGTGAGLLEIKKIGDEYFTFITDCKDPKACTILLRGASKEILSEVERNLQDAMQVCRNVLLDPQLVPGGGASEMAVAHALTEKSKAMTGVEQWPYRAVAQALEVIPRTLIQNCGASTIRLLTSLRAKHTQENCETWGVNGETGTLVDMKELGIWEPLAVKLQTYKTAVETAVLLLRIDDIVSGHKKKGDDQSRQGGAPDAGQE	failed
